B1: STEAP1 (parent)
chain: LWKMKPRRNLEEDDYLHKDTGETS

Variants of: B1
Test: protein stability index of a GFP-peptide fusion (GPS, HEK-293T) (PSI 1-6); higher = more stable
Details: c terminus: a fixed tail appended
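Also: lentivirally expressed fusions sorted by FACS into six bins by GFP to DsRed ratio, PSI derived from sequencing read proportions per bin multiplied by bin number.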

Protein stability index: each site, then its substitutions
K5: R 4.11 | S 5.01 | T 4.56 | V 3.94 | W 2.86 | Y 3.9
P6: A 3.94 | C 3.52 | D 4.41 | E 5.13 | F 3.62 | G 4.42 | H 4 | I 3.94 | K 4.1 | L 3.86 | M 3.77 | N 4.52 | Q 3.94 | R 3.65 | S 4.57 | T 4.47 | V 3.96 | W 3.16 | Y 3.96
R7: A 4.83 | C 4.26 | D 5.25 | E 4.47 | F 3.55 | G 4.42 | H 4.69 | I 4.26 | K 4.69 | L 4.4 | M 4.51 | N 4.71 | P 4.62 | Q 4.62 | S 4.58 | T 4.85 | V 4.14 | W 4.07 | Y 3.94
R8: A 4.61 | C 3.79 | D 4.74 | E 4.83 | F 3.93 | G 4.07 | H 4.1 | I 4.22 | K 4.49 | L 4.03 | M 4.6 | N 4.53 | P 4.61 | Q 4.67 | S 4.43 | T 4.47 | V 4.08 | W 3.82 | Y 4.04
N9: A 4.41 | C 3.81 | D 4.53 | E 4.49 | F 4.06 | G 4.58 | H 4.47 | I 4.15 | K 4.44 | L 4.15 | M 4.36 | P 4.11 | Q 4.41 | R 4.23 | S 4.56 | T 4.49 | V 4.18 | W 3.08 | Y 4.07
L10: A 4.86 | C 3.9 | D 4.9 | E 4.89 | F 4.24 | G 4.02 | H 4.22 | I 4.67 | K 4.48 | M 4.26 | N 4.4 | P 4.86 | Q 4.72 | R 4.24 | S 5.12 | T 4.69 | V 4.34 | W 4.41 | Y 4.1
E11: A 3.89 | C 3.79 | D 4 | F 3.61 | G 3.93 | H 4.26 | I 3.82 | K 4.58 | L 3.88 | M 3.96 | N 3.83 | P 4.2 | Q 4.12 | R 4.04 | S 4.06 | T 4.15 | V 4.28 | W 3.22 | Y 3.09
E12: A 4.06 | C 3.96 | D 4.46 | F 3.51 | G 4.16 | H 3.75 | I 3.66 | K 4.25 | L 3.74 | M 3.63 | N 4.15 | P 4.26 | Q 4.23 | R 4.07 | S 4.45 | T 4.28 | V 4.09 | W 3.16 | Y 3.3
D13: A 3.94 | C 3.65 | E 4.84 | F 3.83 | G 4.61 | H 3.88 | I 3.84 | K 4.43 | L 3.88 | M 3.8 | N 4.35 | P 4.45 | Q 4.63 | R 4.15 | S 3.85 | T 4.19 | V 3.87 | W 3.21 | Y 4.17
D14: A 4.21 | C 4.23 | E 4.63 | F 3.74 | G 4.31 | H 4.18 | I 3.84 | K 4.53 | L 3.8

— the supplement of paper PMC10567573
